Substrate in the data set: NCC(=O)N[C@@H](Cc1ccccc1)C(=O)Nc1ccc([N+](=O)[O-])cc1
As to the kind of experiment: purified protein. Particulars: wild type; conditions of the Km measurement not told.

For orientation: Km means the substrate concentration at which the rate is half of its maximum.

B1: DAP BII (Pseudoxanthomonas mexicana) (protein)
chain: GEGMWVPQQLPEIAGPLKKAGLKLSPQQISDLTGDPMGAVVALGGCTASFVSPNGLVVTNHHCAYGAIQLNSTAENNLIKNGFNAPTTADEVSAGPNARVFVLDEITDVTKDAKAAIAAAGDDALARTKALEAFEKKLIADCEAEAGFRCRLYSFSGGNTYRLFKNLEIKDVRLAYAPPGSVGKFGGDIDNWMWPRHTGDFAFYRAYVGKDGKPAAFSKDNVPYQPKHWLKFADQPLGAGDFVMVAGYPGSTNRYALAAEFDNTAQWTYPTIARHYKNQIAMVEAAGKQNADIQVKYAATMAGWNNTSKNYDGQLEGFKRIDAAGQKLREEAAVLGWLKGQGAKGQPALDAHAKLLDLLEQSKATRDRDLTLALFNNTAMLGSATQLYRLSIEREKPNAERESGYQERDLPAIEGGLKQLERRYVAAMDRQLQEYWLNEYIKLPADQRVAAVDAWLGGNDAAAVKRALDRLAGTKLGSTEERLKWFAADRKAFEASNDPAIQYAVAVMPTLLKLEQERKTRAGENLAARPVYLQALADYKKSQGEFVYPDANLSLRITFGNVMGYAPKDGMEYTPFTTLEGVVAKETGQDPFDSPKALLDAVAAKRYGGLEDKRIGSVPVNYLSDLDITGGNSGSPVLDAHGKLVGLAFDGNWESVSSNWVFDPKMTRMIAVDGRYLRWIMQEVYPAPQLLKEMNVGK
Consider B1, for which the Km came out at 1400 µM.

For the origin of these results see article PMC4021333.
